Source: patent US20120041056A1, “NUCLEIC ACIDS SPECIFICALLY BINDING WITH HUMAN FACTOR VII/VIIA AND USES THEREOF” (LFB BIOTECHNOLOGIES, published 2012)

Key:
[1] = target: T1, Factor VII/VIIa (FVII HP, plasma-derived) (Homo sapiens, UniProt P08709;P08709 P08709:61-212,P08709:213-466); assay: SPR; FVII immobilized; 10 mM CaCl2, 4 mM MgCl2, pH 7.4; eluted by 5 mM EDTA; settings: tags: none; purified from human plasma (98-99% purity)
Method: Each sample was injected sequentially onto the same chip (solid substrate) containing the immobilized human FVII. Controls were obtained by injecting blanks containing only running buffer. All the injections were carried out with a flow rate of 30 μl/min for 60 sec; after the injection, running buffer was injected onto the chip at an identical flow rate, for 120 sec. Elution buffer (5 mM EDTA) was then injected for 60 sec with a flow rate of 30 μl/min in order to detach the […]. The chip makes it possible to study, in real time, the formation and the breaking of the interactions between the immobilized human FVII and each of the aptamers Mapt2, Mapt3 and Mapt7 tested, by means of surface plasmon resonance (SPR). Binding to the immobilized human FVII is reflected by an increase in the signal, in resonance units (RU), recorded by the apparatus (FIG. 2). These analyses are carried out with the RPS Biacore T100 apparatus (GE). The modeling of the interactions recorded is carried out using the Biaevaluation software (GE).

[2] = target: T1, Factor VII/VIIa (FVII HP, …); assay: SPR; FVII immobilized, aptamer 1 uM; much higher affinity than other family 2 members; 10 mM CaCl2, 4 mM MgCl2, pH 7.5; settings: tags: none; purified from human plasma (98-99% purity)
Method: A series of 27 nucleic aptamers of the invention (purity: 99%), having a length ranging from 43 to 66 nucleotides depending on the aptamers, were diluted in running buffer (50 mM Tris, 50 mM NaCl, 10 mM CaCl₂, 4 mM MgCl₂, pH 7.5) so as to obtain three aptamer samples. Each aptamer tested was injected at a final concentration of 1 μM in the running buffer.
Each sample was injected sequentially onto the same chip (solid substrate) containing the immobilized human FVII. Controls are obtained by injecting blanks containing only running buffer. All the injections were carried out with a flow rate of 30 μl/min for 60 sec; after the injection, running buffer was injected onto the chip at an identical flow rate, for 120 sec. Elution buffer (5 mM EDTA) was then injected for 60 sec with a flow rate of 30 μl/min in order to detach the aptamer from the immobilized human FVII. The chip makes it possible to study, in real time, the formation and the breaking of the interactions between the immobilized human FVII and each of the aptamers tested, by means of surface plasmon resonance (SPR). Binding to the immobilized human FVII is reflected by an increase in the signal, in resonance units (RU), recorded by the apparatus (figure E1). These analyses are carried out with the RPS Biacore T100 apparatus (GE). The modeling of the interactions recorded is carried out using the Biaevaluation software (GE).

[3] = target: T1, Factor VII/VIIa (FVII HP, …); assay: pulldown; affinity chromatography on streptavidin gel; CaCl2/MgCl2 buffer pH 7.5, eluted with 10 mM EDTA; Mapt2 core in low affinity group by SPR (Example 11); settings: tags: none; purified from human plasma (98-99% purity); label: 5'-biotin
Method: Gel equilibration: 0.050 M Tris-HCl, 0.010 M CaCl₂, 0.05 mM MgCl₂, pH 7.5, elution: 0.020 M Tris-HCl, 0.010 M EDTA, pH 7.5, 240 μg of human plasma FVII purified to 98% is injected with a flow rate of 0.5 ml/min in equilibration buffer.

[4] = target: Factor VII, recombinant rabbit (Oryctolagus cuniculus, UniProt P98139;P98139 P98139:40-191,P98139:192-444); assay: SPR; no binding to rabbit FVII/VIIa; settings: label: 5'-biotin
Method: Each sample was injected sequentially onto the same chip (solid substrate) containing the Mapt2 aptamer immobilized by means of a biotin-streptavidin interaction. Controls are obtained by injecting blanks containing only running buffer. Signals corresponding to the background noise are obtained by injecting the same samples onto the reference cell containing the immobilized some nucleic acids or other, these signals are subtracted from the signals obtained on the active cell. All the injections were carried out with a flow rate of 30 μl/min for 60 sec; after the injection, running buffer was injected onto the chip at an identical flow rate, for 120 sec. Elution buffer (15 mM EDTA) was then injected for 30 sec with a flow rate of 30 μl/min in order to detach the human or rabbit FVII from the aptamer. The chip makes it possible to study, in real time, the formation and the breaking of the interactions between the FVII HP and the immobilized aptamer by means of surface plasmon resonance (SPR). Binding to the immobilized aptamer is reflected by an increase in the signal, in resonance units (RU), recorded by the apparatus (FIG. 8). These analyses are carried out with the RPS Biacore T100 apparatus (GE).
The modeling of the interactions recorded is carried out using the Biaevaluation software (GE).

[5] = target: T1, Factor VII/VIIa (FVII HP, …); assay: SPR; aptamer immobilized; 50 mM Tris, 50 mM NaCl, 10 mM CaCl2, 4 mM MgCl2, pH 7.4; about 1:1 stoichiometry (Example 4); settings: tags: none; purified from human plasma (98-99% purity); label: 5'-biotin
[6] = target: Factor VII, rabbit plasma (hydroxyapatite eluate) (Oryctolagus cuniculus, UniProt P98139;P98139 P98139:40-191,P98139:192-444); assay: pulldown; affinity chromatography; 0.2% step yield in eluate, rabbit FVII not retained; settings: tags: enriched from rabbit plasma; label: 5'-biotin
Method: Gel equilibration: 0.050 M Tris-HCl, 0.010 M CaCl₂, 0.05 mM […], pH 7.5, elution: 0.050 M Tris-HCl, 0.010 M EDTA, pH 7.5, 36 μg are injected into the gel with a contact time of 10 minutes. The elution is carried out by injecting 2 ml of elution buffer.
The fractions are analyzed for their amidolytic activity by chromogenic assay using a Stago kit according to the supplier's recommendations (factor VIIa StatClot kit). The amidolytic activity is then converted to pg of FVII contained in said fraction.

AGTCTCCATGTTGCGAACCGAATGGTAAGGGGATCGTACACTAC (ssDNA) [Mapt7]
binding result [1]: binds

CCGCACGCTACGCGCATGAACCCGCGCACACGACTTGAAGTAGC (ssDNA) [Mapt2.2 core sequence]
binding result [2]: binds

CCGCACACCACGCGCATAATCCCGCGCACACGACTTGAAGTAGC (ssDNA, 5'-biotin without spacer) [Mapt-2 core (5'-biotin)]
binding result [3]: binds

B1: Mapt2 (biotin-PEG) (ssDNA)
DNA: GGGAGATAGCCACGACCTATGCAGCCAGCCGCAGTGTAAGTGAATGCAGACATGGTCTAAGTGTCCAGGCTGTGCGAAAGC
modifications: 5' spacer of 4 PEG(C18) and terminal biotin
binding result [4]: no binding | Kd [5]: 99.9 nM | binding result [6]: no binding

B2: Mapt2 (ssDNA)
DNA: B1 DNA
binding result [1]: binds

CCGGAGACGCGCAGCTCCTATACATGCGCACATGACTTGAAGTC (ssDNA) [Mapt3]
binding result [1]: binds
